Reference: patent US9951373B2, “Oplophorus-derived luciferases, novel coelenterazine substrates, and methods of use” (Promega Corporation, priority 2010, dated 2018)

Legend:
[1] = Exposure of OgLuc variant to urea; format: physicochemical; settings: 3 M urea, 30 min at 25° C.
Method: Since Firefly luciferase is known to be relatively unstable, it is much more sensitive to urea exposure. To determine whether this was also the case with the OgLuc variants, the sensitivity of the OgLuc to urea was determined 5 μl of 45.3 μM L27V enzyme was mixed with 100 μL of a urea solution (100 mM MOPS, pH 7.2, 100 mM NaCl, 1 mM CDTA, 5% glycerol and various concentrations of urea) and incubated for 30 min at room temperature. 5 μL of the urea+L27V enzyme solution was diluted 10,000-fold into DMEM without phenol red+0.1% PRIONEX®, 50 μL was mixed with 50 μL of assay reagent containing 100 μM PBI-3939 (previously described) and the luminescence was read at 10 min. (FIG. 88).
A 0.31 mg/mL stock of purified L27V variant was diluted 100,000-fold into buffer (PBS+1 mM DTT+0.005% IGEPAL) and incubated with 3 M urea for 30 min at 25° C. and then mixed 1:1 (50 μL+50 μL) with an assay reagent containing 100 μM PBI-3939 (previously described). The reactions were read on a TECAN® INFINITE® F500 luminometer as described previously (for 100 min; 1 min read intervals) (FIG. 89).

[2] = Luminescence of 9B8 opt+K33N derived variants in E. coli; format: biochemical
Method: Luminescence generated from the lysates was measured using the novel PBI-3939 and native coelenterazine as substrates. The relative specificity of the variants for PBI-3939 and native coelenterazine was calculated as described previously.
A new OgLuc library was created using 9B8opt+K33N as a starting template. The random library was created using DIVERSIFY® PCR Random Mutagenesis Kit (ClonTech; Catalog #630703). Condition 5 (as listed in the user manual) was used to generate additional variants, and the average mutation rate was calculated to be 2.6 mutations per gene by compiling sequence data from 83 randomly selected clones. This PCR library was cloned into the pF4Ag-based, non-fusion vector background described previously and the sandwich background, i.e., Id-OgLuc-HT7 (described in Example 45). Variants in the pF4Ag-base non-fusion vector background are designated with (NF). Variants in the sandwich vector background are designated with (F). In order to clone the PCR product into both vectors, an amino acid, i.e., a glycine, was appended to the variant sequence in pF4Ag, generating a new position 170 in the OgLuc variant (“170G”). The 170G is present in the sandwich construct, but in this case is considered part of the linker between OgLuc and HT7. For each library, 4,400 E. coli clones were assayed as described previously with the following exceptions. […] The assay buffer contained 100 mM MES pH 6.0 instead of HEPES, and 35 mM thiourea. The assay volumes were as follows: 10 μL cells, 40 μL, lysis buffer, and 50 μL, assay buffer.
E. coli lysates containing the variants were prepared and analyzed as described previously. Luminescence generated from the lysates was measured using the novel PBI-3939 and native coelenterazine as substrates. The luminescence of the variants was normalized to the luminescence generated by 9B8 opt (Table 12). The relative specificity of the variants for PBI-3939 and native coelenterazine was calculated by dividing the luminescence of the variants using PBI-3939 as a substrate with the luminescence of the variants using native coelenterazine as a substrate (Table 12).

B1: L27V: 9B8 opt+K33N variant with L27V, T39T, K43R, Y68D (SEQ ID NO: 89) (protein)
chain: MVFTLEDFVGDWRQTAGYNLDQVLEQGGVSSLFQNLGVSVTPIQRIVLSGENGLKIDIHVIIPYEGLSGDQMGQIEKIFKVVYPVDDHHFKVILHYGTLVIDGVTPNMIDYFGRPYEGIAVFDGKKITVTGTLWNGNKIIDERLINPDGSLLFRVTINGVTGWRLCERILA
[1]
  reduction of activity: approximately 50%
[2]; luminescence with PBI-3939 divided by luminescence with native coelenterazine, bacterial lysates
  Fold over coelenterazine: 110
[2]; luminescence with PBI-3939 normalized to 9B8 opt, bacterial lysates
  Fold over 9B8: 1.8
[2]; relative specificity for PBI-3939 compared to native coelenterazine
  Fold over Native Coelenterazine, E. coli: 85.2
